Non-standard residues stand in square brackets, D forms with d. No end group written: not given here.
Target: recombinant αIIbβ3 headpiece
Assay: FP

Row | Binder | Kd [µM]
1 | AGD[dV] [AGD(v) (D-valine in place of L-valine)] | 217
2 | AGDV-NH2 [AGDV-NH2 (amidated AGDV)] | 50.9
3 | AGDV-OMe [AGDV-OCH3 (O-methylated AGDV)] | 67.6

From article PMC4813479 (2015)
